# In patent US12679878B2, “CRF2 receptor agonists and their use in therapy” (SANOFI, priority 2020, dated 2026):
# Starred links: 1 amine or outer side, 2 acyl side, 3 side chain; linkers in the order of their positions; H or OH if unused. Non-standard residues stand in square brackets, D forms with d. Groups on a side chain read outwards from the residue. No end group written: not given here. *: point of attachment. C20 diacid = O=C(O)CCCCCCCCCCCCCCCCCCC(=O)*; C18 diacid = O=C(O)CCCCCCCCCCCCCCCCC(=O)*; γGlu = O=C(O)[C@H](CCC(=O)[*:2])N[*:1]; Palmitoyl = CCCCCCCCCCCCCCCC(=O)*; AEEA = NCCOCCOCC(=O)O; Aib = CC(C)(N)C(=O)O
# B1: SEQ ID NO: 78 (peptide)
# peptide: IVLSLDVPTKLK([AEEA-AEEA-γGlu-C18 diacid])QILLEQERQKKQREQAETN[Aib]QILAQV-NH2
# modifications: N-terminus assumed
# SMILES: CC[C@H](C)[C@H](N)C(=O)N[C@H](C(=O)N[C@@H](CC(C)C)C(=O)N[C@@H](CO)C(=O)N[C@@H](CC(C)C)C(=O)N[C@@H](CC(=O)O)C(=O)N[C@H](C(=O)N1CCC[C@H]1C(=O)N[C@H](C(=O)N[C@@H](CCCCN)C(=O)N[C@@H](CC(C)C)C(=O)N[C@@H](CCCCNC(=O)COCCOCCNC(=O)COCCOCCNC(=O)CC[C@H](NC(=O)CCCCCCCCCCCCCCCCC(=O)O)C(=O)O)C(=O)N[C@@H](CCC(N)=O)C(=O)N[C@H](C(=O)N[C@@H](CC(C)C)C(=O)N[C@@H](CC(C)C)C(=O)N[C@@H](CCC(=O)O)C(=O)N[C@@H](CCC(N)=O)C(=O)N[C@@H](CCC(=O)O)C(=O)N[C@@H](CCCNC(=N)N)C(=O)N[C@@H](CCC(N)=O)C(=O)N[C@@H](CCCCN)C(=O)N[C@@H](CCCCN)C(=O)N[C@@H](CCC(N)=O)C(=O)N[C@@H](CCCNC(=N)N)C(=O)N[C@@H](CCC(=O)O)C(=O)N[C@@H](CCC(N)=O)C(=O)N[C@@H](C)C(=O)N[C@@H](CCC(=O)O)C(=O)N[C@H](C(=O)N[C@@H](CC(N)=O)C(=O)NC(C)(C)C(=O)N[C@@H](CCC(N)=O)C(=O)N[C@H](C(=O)N[C@@H](CC(C)C)C(=O)N[C@@H](C)C(=O)N[C@@H](CCC(N)=O)C(=O)N[C@H](C(N)=O)C(C)C)[C@@H](C)CC)[C@@H](C)O)[C@@H](C)CC)[C@@H](C)O)C(C)C)C(C)C
# B2: SEQ ID NO: 5 (peptide)
# peptide: IVLSLDVPIGLK([γGlu-Palmitoyl])QKLLKQQRQRKERQQAETNARILARV-NH2
# modifications: N-terminus assumed
# SMILES: CCCCCCCCCCCCCCCC(=O)N[C@@H](CCC(=O)NCCCC[C@H](NC(=O)[C@H](CC(C)C)NC(=O)CNC(=O)[C@@H](NC(=O)[C@@H]1CCCN1C(=O)[C@@H](NC(=O)[C@H](CC(=O)O)NC(=O)[C@H](CC(C)C)NC(=O)[C@H](CO)NC(=O)[C@H](CC(C)C)NC(=O)[C@@H](NC(=O)[C@@H](N)[C@@H](C)CC)C(C)C)C(C)C)[C@@H](C)CC)C(=O)N[C@@H](CCC(N)=O)C(=O)N[C@@H](CCCCN)C(=O)N[C@@H](CC(C)C)C(=O)N[C@@H](CC(C)C)C(=O)N[C@@H](CCCCN)C(=O)N[C@@H](CCC(N)=O)C(=O)N[C@@H](CCC(N)=O)C(=O)N[C@@H](CCCNC(=N)N)C(=O)N[C@@H](CCC(N)=O)C(=O)N[C@@H](CCCNC(=N)N)C(=O)N[C@@H](CCCCN)C(=O)N[C@@H](CCC(=O)O)C(=O)N[C@@H](CCCNC(=N)N)C(=O)N[C@@H](CCC(N)=O)C(=O)N[C@@H](CCC(N)=O)C(=O)N[C@@H](C)C(=O)N[C@@H](CCC(=O)O)C(=O)N[C@H](C(=O)N[C@@H](CC(N)=O)C(=O)N[C@@H](C)C(=O)N[C@@H](CCCNC(=N)N)C(=O)N[C@H](C(=O)N[C@@H](CC(C)C)C(=O)N[C@@H](C)C(=O)N[C@@H](CCCNC(=N)N)C(=O)N[C@H](C(N)=O)C(C)C)[C@@H](C)CC)[C@@H](C)O)C(=O)O
# B3: SEQ ID NO: 79 (peptide)
# peptide: IVLSLDVPIKLK([AEEA-AEEA-γGlu-C18 diacid])QILLEQEKQK[Aib]QREQAETNKQILAQV-NH2
# modifications: N-terminus assumed
# SMILES: CC[C@H](C)[C@H](N)C(=O)N[C@H](C(=O)N[C@@H](CC(C)C)C(=O)N[C@@H](CO)C(=O)N[C@@H](CC(C)C)C(=O)N[C@@H](CC(=O)O)C(=O)N[C@H](C(=O)N1CCC[C@H]1C(=O)N[C@H](C(=O)N[C@@H](CCCCN)C(=O)N[C@@H](CC(C)C)C(=O)N[C@@H](CCCCNC(=O)COCCOCCNC(=O)COCCOCCNC(=O)CC[C@H](NC(=O)CCCCCCCCCCCCCCCCC(=O)O)C(=O)O)C(=O)N[C@@H](CCC(N)=O)C(=O)N[C@H](C(=O)N[C@@H](CC(C)C)C(=O)N[C@@H](CC(C)C)C(=O)N[C@@H](CCC(=O)O)C(=O)N[C@@H](CCC(N)=O)C(=O)N[C@@H](CCC(=O)O)C(=O)N[C@@H](CCCCN)C(=O)N[C@@H](CCC(N)=O)C(=O)N[C@@H](CCCCN)C(=O)NC(C)(C)C(=O)N[C@@H](CCC(N)=O)C(=O)N[C@@H](CCCNC(=N)N)C(=O)N[C@@H](CCC(=O)O)C(=O)N[C@@H](CCC(N)=O)C(=O)N[C@@H](C)C(=O)N[C@@H](CCC(=O)O)C(=O)N[C@H](C(=O)N[C@@H](CC(N)=O)C(=O)N[C@@H](CCCCN)C(=O)N[C@@H](CCC(N)=O)C(=O)N[C@H](C(=O)N[C@@H](CC(C)C)C(=O)N[C@@H](C)C(=O)N[C@@H](CCC(N)=O)C(=O)N[C@H](C(N)=O)C(C)C)[C@@H](C)CC)[C@@H](C)O)[C@@H](C)CC)[C@@H](C)CC)C(C)C)C(C)C
# B4: SEQ ID NO: 80 (peptide)
# peptide: IVLSLDVPTKLK([AEEA-AEEA-γGlu-C20 diacid])QILLEQERQKKQREQAETN[Aib]QILAQV-NH2
# modifications: N-terminus assumed
# SMILES: CC[C@H](C)[C@H](N)C(=O)N[C@H](C(=O)N[C@@H](CC(C)C)C(=O)N[C@@H](CO)C(=O)N[C@@H](CC(C)C)C(=O)N[C@@H](CC(=O)O)C(=O)N[C@H](C(=O)N1CCC[C@H]1C(=O)N[C@H](C(=O)N[C@@H](CCCCN)C(=O)N[C@@H](CC(C)C)C(=O)N[C@@H](CCCCNC(=O)COCCOCCNC(=O)COCCOCCNC(=O)CC[C@H](NC(=O)CCCCCCCCCCCCCCCCCCC(=O)O)C(=O)O)C(=O)N[C@@H](CCC(N)=O)C(=O)N[C@H](C(=O)N[C@@H](CC(C)C)C(=O)N[C@@H](CC(C)C)C(=O)N[C@@H](CCC(=O)O)C(=O)N[C@@H](CCC(N)=O)C(=O)N[C@@H](CCC(=O)O)C(=O)N[C@@H](CCCNC(=N)N)C(=O)N[C@@H](CCC(N)=O)C(=O)N[C@@H](CCCCN)C(=O)N[C@@H](CCCCN)C(=O)N[C@@H](CCC(N)=O)C(=O)N[C@@H](CCCNC(=N)N)C(=O)N[C@@H](CCC(=O)O)C(=O)N[C@@H](CCC(N)=O)C(=O)N[C@@H](C)C(=O)N[C@@H](CCC(=O)O)C(=O)N[C@H](C(=O)N[C@@H](CC(N)=O)C(=O)NC(C)(C)C(=O)N[C@@H](CCC(N)=O)C(=O)N[C@H](C(=O)N[C@@H](CC(C)C)C(=O)N[C@@H](C)C(=O)N[C@@H](CCC(N)=O)C(=O)N[C@H](C(N)=O)C(C)C)[C@@H](C)CC)[C@@H](C)O)[C@@H](C)CC)[C@@H](C)O)C(C)C)C(C)C
# B5: SEQ ID NO: 81 (peptide)
# peptide: IVLSLDVPIKLK([AEEA-AEEA-γGlu-C20 diacid])QILLEQEKQK[Aib]QREQAETNKQILAQV-NH2
# modifications: N-terminus assumed
# SMILES: CC[C@H](C)[C@H](N)C(=O)N[C@H](C(=O)N[C@@H](CC(C)C)C(=O)N[C@@H](CO)C(=O)N[C@@H](CC(C)C)C(=O)N[C@@H](CC(=O)O)C(=O)N[C@H](C(=O)N1CCC[C@H]1C(=O)N[C@H](C(=O)N[C@@H](CCCCN)C(=O)N[C@@H](CC(C)C)C(=O)N[C@@H](CCCCNC(=O)COCCOCCNC(=O)COCCOCCNC(=O)CC[C@H](NC(=O)CCCCCCCCCCCCCCCCCCC(=O)O)C(=O)O)C(=O)N[C@@H](CCC(N)=O)C(=O)N[C@H](C(=O)N[C@@H](CC(C)C)C(=O)N[C@@H](CC(C)C)C(=O)N[C@@H](CCC(=O)O)C(=O)N[C@@H](CCC(N)=O)C(=O)N[C@@H](CCC(=O)O)C(=O)N[C@@H](CCCCN)C(=O)N[C@@H](CCC(N)=O)C(=O)N[C@@H](CCCCN)C(=O)NC(C)(C)C(=O)N[C@@H](CCC(N)=O)C(=O)N[C@@H](CCCNC(=N)N)C(=O)N[C@@H](CCC(=O)O)C(=O)N[C@@H](CCC(N)=O)C(=O)N[C@@H](C)C(=O)N[C@@H](CCC(=O)O)C(=O)N[C@H](C(=O)N[C@@H](CC(N)=O)C(=O)N[C@@H](CCCCN)C(=O)N[C@@H](CCC(N)=O)C(=O)N[C@H](C(=O)N[C@@H](CC(C)C)C(=O)N[C@@H](C)C(=O)N[C@@H](CCC(N)=O)C(=O)N[C@H](C(N)=O)C(C)C)[C@@H](C)CC)[C@@H](C)O)[C@@H](C)CC)[C@@H](C)CC)C(C)C)C(C)C
# B6: SEQ ID NO: 82 (peptide)
# peptide: IVLSLDVPTKLK([AEEA-AEEA-γGlu-C18 diacid])QILLKQERQKK[Aib]REQAETNVRILERV-NH2
# modifications: N-terminus assumed
# SMILES: CC[C@H](C)[C@H](N)C(=O)N[C@H](C(=O)N[C@@H](CC(C)C)C(=O)N[C@@H](CO)C(=O)N[C@@H](CC(C)C)C(=O)N[C@@H](CC(=O)O)C(=O)N[C@H](C(=O)N1CCC[C@H]1C(=O)N[C@H](C(=O)N[C@@H](CCCCN)C(=O)N[C@@H](CC(C)C)C(=O)N[C@@H](CCCCNC(=O)COCCOCCNC(=O)COCCOCCNC(=O)CC[C@H](NC(=O)CCCCCCCCCCCCCCCCC(=O)O)C(=O)O)C(=O)N[C@@H](CCC(N)=O)C(=O)N[C@H](C(=O)N[C@@H](CC(C)C)C(=O)N[C@@H](CC(C)C)C(=O)N[C@@H](CCCCN)C(=O)N[C@@H](CCC(N)=O)C(=O)N[C@@H](CCC(=O)O)C(=O)N[C@@H](CCCNC(=N)N)C(=O)N[C@@H](CCC(N)=O)C(=O)N[C@@H](CCCCN)C(=O)N[C@@H](CCCCN)C(=O)NC(C)(C)C(=O)N[C@@H](CCCNC(=N)N)C(=O)N[C@@H](CCC(=O)O)C(=O)N[C@@H](CCC(N)=O)C(=O)N[C@@H](C)C(=O)N[C@@H](CCC(=O)O)C(=O)N[C@H](C(=O)N[C@@H](CC(N)=O)C(=O)N[C@H](C(=O)N[C@@H](CCCNC(=N)N)C(=O)N[C@H](C(=O)N[C@@H](CC(C)C)C(=O)N[C@@H](CCC(=O)O)C(=O)N[C@@H](CCCNC(=N)N)C(=O)N[C@H](C(N)=O)C(C)C)[C@@H](C)CC)C(C)C)[C@@H](C)O)[C@@H](C)CC)[C@@H](C)O)C(C)C)C(C)C
# Molecular target: human corticotropin-releasing factor 2α (CRF2 α receptor) (human), Q13324
# Sequence (Q13324 20-411): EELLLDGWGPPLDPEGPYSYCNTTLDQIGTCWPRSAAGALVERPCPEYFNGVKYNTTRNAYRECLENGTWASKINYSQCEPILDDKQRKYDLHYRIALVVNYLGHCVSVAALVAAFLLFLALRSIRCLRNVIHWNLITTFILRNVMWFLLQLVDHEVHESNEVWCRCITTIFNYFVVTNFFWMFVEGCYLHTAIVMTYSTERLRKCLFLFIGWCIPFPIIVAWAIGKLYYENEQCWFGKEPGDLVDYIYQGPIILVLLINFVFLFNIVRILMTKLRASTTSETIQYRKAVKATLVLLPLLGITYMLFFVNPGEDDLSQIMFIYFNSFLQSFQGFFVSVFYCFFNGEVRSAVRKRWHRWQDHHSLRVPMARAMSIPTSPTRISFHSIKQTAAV
# Test: cell-based or functional assay
Binder,"EC50 [nM], 0% HSA [nM]","EC50 [nM], 0.1% HSA [nM]"
B1,10.6,
B2,0.04,
B3,0.46,
B4,0.9,92.5
B5,0.14,18.5
B6,10.1,
